Experiments:
Test in all cases: biochemical
Assay type in all cases: biochemical
[1] = molecular target: T1, 266 human kinases (Homo sapiens, UniProt P54760); conditions: EphB4(h); 100 μM
T1 sequence (P54760 16-987): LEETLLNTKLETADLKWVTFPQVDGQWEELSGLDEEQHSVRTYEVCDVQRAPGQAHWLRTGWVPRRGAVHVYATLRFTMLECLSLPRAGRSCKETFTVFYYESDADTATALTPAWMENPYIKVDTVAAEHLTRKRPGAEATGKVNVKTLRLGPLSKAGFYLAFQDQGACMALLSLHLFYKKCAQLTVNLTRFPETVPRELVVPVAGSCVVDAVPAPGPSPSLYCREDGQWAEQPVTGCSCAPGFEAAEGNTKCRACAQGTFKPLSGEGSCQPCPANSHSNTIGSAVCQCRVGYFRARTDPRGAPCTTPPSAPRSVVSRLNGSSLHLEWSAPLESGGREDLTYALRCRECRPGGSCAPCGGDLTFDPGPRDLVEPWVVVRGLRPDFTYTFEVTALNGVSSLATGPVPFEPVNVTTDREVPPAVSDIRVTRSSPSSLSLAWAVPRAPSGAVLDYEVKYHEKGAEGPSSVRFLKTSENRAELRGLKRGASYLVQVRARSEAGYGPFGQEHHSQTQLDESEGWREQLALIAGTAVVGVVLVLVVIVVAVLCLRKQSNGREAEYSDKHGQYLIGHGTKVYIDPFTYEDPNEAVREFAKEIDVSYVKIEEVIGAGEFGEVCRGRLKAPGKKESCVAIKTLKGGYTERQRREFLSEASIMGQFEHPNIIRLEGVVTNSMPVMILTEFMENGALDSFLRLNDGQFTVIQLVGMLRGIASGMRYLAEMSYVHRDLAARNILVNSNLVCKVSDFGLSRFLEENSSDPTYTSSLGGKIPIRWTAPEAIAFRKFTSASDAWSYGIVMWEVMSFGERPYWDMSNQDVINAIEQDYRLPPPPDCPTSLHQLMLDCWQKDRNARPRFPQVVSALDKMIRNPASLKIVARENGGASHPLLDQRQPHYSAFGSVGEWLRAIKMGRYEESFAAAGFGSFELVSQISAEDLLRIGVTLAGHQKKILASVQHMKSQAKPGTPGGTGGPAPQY
Outline: (§1)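 Kinase phosphorylates cationic substrate with radiolabelled ATP phosphate; substrate retained on anionic filter membrane; scintillation count; % of 100% activity control.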

[2] = molecular target: 266 human kinases (Homo sapiens, UniProt Q9P1W9); conditions: Pim-2(h); 100 μM
Outline: as §1

[3] = molecular target: 266 human kinases (Homo sapiens, UniProt P17252); conditions: PKCα(h); 100 μM
Outline: as §1

[4] = molecular target: 266 human kinases (Homo sapiens, UniProt P08581, M1250T); conditions: Met(M1268T)(h); 100 μM
Outline: as §1

[5] = molecular target: 266 human kinases (Homo sapiens, UniProt Q00535); conditions: 100 μM
Outline: as §1

[6] = molecular target: 266 human kinases (Homo sapiens, UniProt Q9UK32); conditions: Rsk4(h); 100 μM
Outline: as §1

[7] = molecular target: 266 human kinases (Homo sapiens, UniProt P00519, T315I); conditions: Abl(T315I)(h); 100 μM
Outline: as §1

[8] = molecular target: 266 human kinases (Homo sapiens, UniProt P42684); conditions: Arg(h); 100 μM
Outline: as §1

[9] = molecular target: 266 human kinases (Homo sapiens, UniProt Q13043); conditions: MST1(h); 100 μM
Outline: as §1

[10] = molecular target: 266 human kinases (Homo sapiens, UniProt P00533, L858R/T790M); conditions: EGFR(T790M,L858R)(h); 100 μM
Outline: as §1

[11] = molecular target: 266 human kinases (Homo sapiens, UniProt P51812); conditions: Rsk2(h); 100 μM
Outline: as §1

[12] = molecular target: 266 human kinases (Homo sapiens, UniProt Q9Y3S1); conditions: WNK2(h); 100 μM
Outline: as §1

[13] = molecular target: 266 human kinases (Homo sapiens, UniProt P30530); conditions: Axl(h); 100 μM
Outline: as §1

[14] = molecular target: 266 human kinases (Homo sapiens, UniProt P07949); conditions: Ret(h); 100 μM
Outline: as §1

[15] = molecular target: T2, 266 human kinases (Homo sapiens, UniProt P43403); conditions: ZAP-70(h); 100 μM
T2 sequence (P43403 1-619): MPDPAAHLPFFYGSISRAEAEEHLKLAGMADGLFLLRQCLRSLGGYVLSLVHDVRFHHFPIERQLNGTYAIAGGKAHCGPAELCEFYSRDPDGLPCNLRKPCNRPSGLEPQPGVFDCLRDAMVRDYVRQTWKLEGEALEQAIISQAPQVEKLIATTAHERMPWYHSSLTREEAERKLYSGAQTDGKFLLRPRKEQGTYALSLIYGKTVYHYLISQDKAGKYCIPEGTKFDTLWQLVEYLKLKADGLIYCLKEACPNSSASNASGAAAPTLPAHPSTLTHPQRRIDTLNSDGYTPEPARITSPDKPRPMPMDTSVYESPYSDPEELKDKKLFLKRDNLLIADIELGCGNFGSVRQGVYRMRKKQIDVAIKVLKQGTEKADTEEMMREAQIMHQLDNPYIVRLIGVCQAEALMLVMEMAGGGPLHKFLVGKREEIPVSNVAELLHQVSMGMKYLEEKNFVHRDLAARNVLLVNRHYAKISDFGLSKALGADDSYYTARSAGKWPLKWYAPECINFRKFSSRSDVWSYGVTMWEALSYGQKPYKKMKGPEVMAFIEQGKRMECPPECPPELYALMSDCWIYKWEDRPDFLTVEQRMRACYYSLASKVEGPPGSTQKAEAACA
Outline: as §1

[16] = molecular target: 266 human kinases (Homo sapiens, UniProt P08581, D1228N); conditions: Met(D1246N)(h); 100 μM
Outline: as §1

Chain of 266 human kinases (Homo sapiens, UniProt Q00535) (Q00535 whole entry): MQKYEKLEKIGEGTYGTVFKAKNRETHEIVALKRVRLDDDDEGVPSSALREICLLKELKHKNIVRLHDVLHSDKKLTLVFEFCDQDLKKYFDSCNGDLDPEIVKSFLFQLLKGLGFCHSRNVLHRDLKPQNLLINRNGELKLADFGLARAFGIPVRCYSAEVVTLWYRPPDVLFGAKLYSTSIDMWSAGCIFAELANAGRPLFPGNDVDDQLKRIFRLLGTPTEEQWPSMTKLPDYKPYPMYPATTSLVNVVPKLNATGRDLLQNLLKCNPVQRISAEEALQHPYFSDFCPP
Chain of 266 human kinases (Homo sapiens, UniProt P42684) (P42684 whole entry): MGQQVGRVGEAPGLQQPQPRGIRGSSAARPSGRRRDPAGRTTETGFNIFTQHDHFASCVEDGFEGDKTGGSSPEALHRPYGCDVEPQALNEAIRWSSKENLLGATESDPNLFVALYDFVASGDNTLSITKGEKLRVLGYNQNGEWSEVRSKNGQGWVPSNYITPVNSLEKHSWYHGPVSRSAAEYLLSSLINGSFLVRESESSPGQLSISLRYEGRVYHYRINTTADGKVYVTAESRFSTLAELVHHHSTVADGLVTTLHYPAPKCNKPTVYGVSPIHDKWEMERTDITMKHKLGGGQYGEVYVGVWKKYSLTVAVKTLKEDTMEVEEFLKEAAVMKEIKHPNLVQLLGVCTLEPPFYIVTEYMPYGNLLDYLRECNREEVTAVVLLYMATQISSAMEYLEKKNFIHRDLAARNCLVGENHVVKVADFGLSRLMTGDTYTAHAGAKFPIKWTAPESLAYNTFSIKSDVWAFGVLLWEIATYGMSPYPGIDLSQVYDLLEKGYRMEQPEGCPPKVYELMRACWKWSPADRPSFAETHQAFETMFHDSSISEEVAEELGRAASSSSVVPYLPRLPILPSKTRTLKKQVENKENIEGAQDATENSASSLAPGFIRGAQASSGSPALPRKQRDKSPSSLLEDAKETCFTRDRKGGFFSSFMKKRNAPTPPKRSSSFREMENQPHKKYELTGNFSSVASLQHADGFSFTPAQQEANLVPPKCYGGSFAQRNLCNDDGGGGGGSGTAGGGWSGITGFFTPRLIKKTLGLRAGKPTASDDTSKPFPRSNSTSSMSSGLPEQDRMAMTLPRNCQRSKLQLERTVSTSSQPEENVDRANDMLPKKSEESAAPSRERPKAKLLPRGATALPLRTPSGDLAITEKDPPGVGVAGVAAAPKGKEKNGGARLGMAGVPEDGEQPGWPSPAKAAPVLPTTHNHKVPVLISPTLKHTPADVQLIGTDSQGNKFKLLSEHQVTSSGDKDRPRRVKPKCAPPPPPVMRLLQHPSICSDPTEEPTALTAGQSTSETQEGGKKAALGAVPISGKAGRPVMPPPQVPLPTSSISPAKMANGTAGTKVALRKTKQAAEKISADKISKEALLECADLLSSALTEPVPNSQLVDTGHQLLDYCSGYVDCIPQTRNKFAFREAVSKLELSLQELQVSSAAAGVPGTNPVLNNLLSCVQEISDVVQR
Chain of 266 human kinases (Homo sapiens, UniProt Q9UK32) (Q9UK32 whole entry): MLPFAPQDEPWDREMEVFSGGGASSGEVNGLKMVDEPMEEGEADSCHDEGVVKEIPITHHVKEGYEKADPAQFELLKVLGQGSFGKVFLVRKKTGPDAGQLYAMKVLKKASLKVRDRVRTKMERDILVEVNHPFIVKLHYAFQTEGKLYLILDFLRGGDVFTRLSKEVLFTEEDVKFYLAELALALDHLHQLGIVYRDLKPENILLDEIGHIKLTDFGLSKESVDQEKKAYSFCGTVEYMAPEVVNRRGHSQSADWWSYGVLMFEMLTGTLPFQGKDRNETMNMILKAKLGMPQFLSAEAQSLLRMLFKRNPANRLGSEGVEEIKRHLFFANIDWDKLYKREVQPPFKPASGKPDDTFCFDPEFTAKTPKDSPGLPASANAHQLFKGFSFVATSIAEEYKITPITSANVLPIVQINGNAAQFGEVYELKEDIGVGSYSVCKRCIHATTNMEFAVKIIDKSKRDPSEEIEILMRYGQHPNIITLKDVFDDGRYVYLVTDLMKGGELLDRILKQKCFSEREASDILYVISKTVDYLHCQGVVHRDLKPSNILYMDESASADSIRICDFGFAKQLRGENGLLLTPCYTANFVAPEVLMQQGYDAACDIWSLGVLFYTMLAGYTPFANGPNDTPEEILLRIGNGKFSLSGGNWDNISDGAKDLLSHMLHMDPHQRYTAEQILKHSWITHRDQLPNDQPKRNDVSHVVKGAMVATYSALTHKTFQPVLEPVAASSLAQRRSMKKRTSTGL
Chain of 266 human kinases (Homo sapiens, UniProt P51812) (P51812 whole entry): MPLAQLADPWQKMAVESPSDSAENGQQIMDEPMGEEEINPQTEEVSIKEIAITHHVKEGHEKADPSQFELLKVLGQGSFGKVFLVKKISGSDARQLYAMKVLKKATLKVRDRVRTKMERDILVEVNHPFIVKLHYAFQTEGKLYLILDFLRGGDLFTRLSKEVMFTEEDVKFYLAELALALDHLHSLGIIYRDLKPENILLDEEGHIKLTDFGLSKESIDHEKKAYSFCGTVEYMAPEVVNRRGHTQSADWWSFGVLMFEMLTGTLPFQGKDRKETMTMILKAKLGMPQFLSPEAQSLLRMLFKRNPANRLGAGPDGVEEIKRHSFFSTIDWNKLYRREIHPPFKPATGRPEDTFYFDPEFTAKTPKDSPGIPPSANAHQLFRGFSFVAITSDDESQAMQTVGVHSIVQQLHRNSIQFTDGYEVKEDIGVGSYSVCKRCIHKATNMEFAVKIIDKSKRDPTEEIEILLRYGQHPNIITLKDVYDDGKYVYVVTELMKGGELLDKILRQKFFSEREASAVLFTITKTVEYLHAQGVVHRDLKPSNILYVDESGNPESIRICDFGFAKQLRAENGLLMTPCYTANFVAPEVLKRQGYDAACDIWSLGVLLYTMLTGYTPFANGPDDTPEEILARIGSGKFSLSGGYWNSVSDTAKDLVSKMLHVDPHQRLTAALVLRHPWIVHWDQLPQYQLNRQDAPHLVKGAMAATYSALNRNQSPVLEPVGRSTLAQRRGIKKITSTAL
Chain of 266 human kinases (Homo sapiens, UniProt Q9P1W9) (Q9P1W9 whole entry): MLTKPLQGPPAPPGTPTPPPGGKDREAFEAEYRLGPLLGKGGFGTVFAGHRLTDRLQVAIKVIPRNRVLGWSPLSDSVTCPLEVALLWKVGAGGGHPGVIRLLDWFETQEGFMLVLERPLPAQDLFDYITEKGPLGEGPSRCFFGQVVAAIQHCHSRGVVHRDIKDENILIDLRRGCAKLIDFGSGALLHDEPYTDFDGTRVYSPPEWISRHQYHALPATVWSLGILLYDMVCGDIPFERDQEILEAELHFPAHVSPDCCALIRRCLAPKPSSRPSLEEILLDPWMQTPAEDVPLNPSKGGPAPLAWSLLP
Chain of 266 human kinases (Homo sapiens, UniProt Q13043) (Q13043 whole entry): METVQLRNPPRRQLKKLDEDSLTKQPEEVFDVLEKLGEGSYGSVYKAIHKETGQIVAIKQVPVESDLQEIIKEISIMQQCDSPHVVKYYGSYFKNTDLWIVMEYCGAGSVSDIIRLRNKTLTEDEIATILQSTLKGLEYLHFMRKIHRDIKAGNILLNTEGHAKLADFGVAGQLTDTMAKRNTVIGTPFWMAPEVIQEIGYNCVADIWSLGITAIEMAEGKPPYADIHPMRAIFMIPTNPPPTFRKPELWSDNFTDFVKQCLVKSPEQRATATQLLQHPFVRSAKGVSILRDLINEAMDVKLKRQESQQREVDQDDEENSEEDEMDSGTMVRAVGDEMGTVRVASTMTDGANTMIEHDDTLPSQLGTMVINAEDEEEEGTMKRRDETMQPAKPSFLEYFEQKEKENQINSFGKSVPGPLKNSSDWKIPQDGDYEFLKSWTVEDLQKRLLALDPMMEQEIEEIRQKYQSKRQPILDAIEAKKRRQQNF

**Q.** What does the source list for “HRRIKAWLKKIKALARQLGVAA (mammal) [MMI-0500]”?
**A.** % activity [1]: 38%; % activity [2]: 46%; % activity [3]: 3%; % activity [4]: 239%; % activity ([5]; CDK5/p25(h)): 66%; % activity ([5]; CDK5/p35(h)): 59%; % activity [6]: 29%; % activity [7]: 16%; % activity [8]: 22%; % activity [9]: 3%; % activity [10]: 53%; % activity [11]: 14%; % activity [12]: 8%; % activity [13]: 12%; % activity [14]: 174%; % activity [15]: 1%; % activity [16]: 90%

**Q.** With “YARAAARQARAKALNRQLGVA (mammal) [MMI-0200]” as the sequence, how does the “% activity” value [1] read?
**A.** 131%

**Q.** What about the “% activity” value [2] of the same sequence?
**A.** 74%

**Q.** What about the “% activity” value [3] of the same sequence?
**A.** 100%

**Q.** And the “% activity” value [4]?
**A.** 143%

**Q.** What about the “% activity” value ([5]; CDK5/p25(h)) of the same sequence?
**A.** 97%

**Q.** And the “% activity” value ([5]; CDK5/p35(h))?
**A.** 92%

**Q.** What about the “% activity” value [6] of the same sequence?
**A.** 125%

**Q.** What about the “% activity” value [7] of the same sequence?
**A.** 108%

**Q.** What about the “% activity” value [8] of the same sequence?
**A.** 82%

**Q.** What about the “% activity” value [9] of the same sequence?
**A.** 72%

**Q.** And the “% activity” value [10]?
**A.** 108%

**Q.** And the “% activity” value [11]?
**A.** 101%

**Q.** And the “% activity” value [12]?
**A.** 94%

**Q.** What about the “% activity” value [13] of the same sequence?
**A.** 99%

**Q.** And the “% activity” value [14]?
**A.** 96%

**Q.** What about the “% activity” value [15] of the same sequence?
**A.** 58%

**Q.** And the “% activity” value [16]?
**A.** 149%
